Laboratory results taken from publication PMC6480712.

Molecular target: T1, human dopamine D2 long receptor (D2LR) fused C-terminally to LgBiT or SmBiT of NanoLuciferase (human), P14416
T1 chain: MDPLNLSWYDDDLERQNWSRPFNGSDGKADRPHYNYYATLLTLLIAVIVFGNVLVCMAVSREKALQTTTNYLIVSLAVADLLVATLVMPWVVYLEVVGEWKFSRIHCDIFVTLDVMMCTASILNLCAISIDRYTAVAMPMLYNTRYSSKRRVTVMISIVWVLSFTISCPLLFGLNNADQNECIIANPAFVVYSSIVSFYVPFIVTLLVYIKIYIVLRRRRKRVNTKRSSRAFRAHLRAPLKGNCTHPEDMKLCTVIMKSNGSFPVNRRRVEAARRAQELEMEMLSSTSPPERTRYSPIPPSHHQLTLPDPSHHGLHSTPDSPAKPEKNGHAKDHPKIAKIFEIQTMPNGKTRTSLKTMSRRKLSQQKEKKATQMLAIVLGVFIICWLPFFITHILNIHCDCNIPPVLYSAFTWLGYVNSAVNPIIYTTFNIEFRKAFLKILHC
Assay: split reporter (BiFC, NanoBiT); NanoBiT in HEK293T cells co-transfected with 400 ng D2LR–SmBiT, D2LR–LgBiT and increasing native (untagged) D2LR DNA (0–600 ng), without or with 10 µM spiperone; muscarinic M1 receptor co-transfected instead as control
Conditions: remark: other sources report otherwise

- fold increase of the luminescent signal with co-transfected native D2LR (4:4:6) against none: 20 fold
- fold increase of the luminescent signal with co-transfected native D2LR (4:4:6) against none, cells treated with 10 µM spiperone: 5 fold
B1: human dopamine D2 long receptor (D2LR) fused C-terminally to LgBiT or SmBiT of NanoLuciferase, P14416-1 1-443 (receptor)
chain: T1 chain
